Tests used:
casein = assay: General protease activity, EnzChek protease assay; type: biochemical; settings: casein substrate, FabULOUS 5 μg, FabRICATOR 10 μg, IdeSORK2.0 10 μg
Description: FIG. 2. General protease activity. General protease activity was measured with the EnzCHECK protease assay, using casein as a substrate.
General protease activity was determined using the EnzChek Protease Assay kit, according to manufacturer's instructions. As a positive control the general protease FabULOUS (SpeB, 5 μg) was used, and as a negative control the IgG-specific protease FabRICATOR (IdeS, 10 μg). IdeSORK2.0 was added to a total quantity of 10 μg.

horse IgG = assay: Immunoglobulin specificity on SDS-PAGE: horse IgG; type: biochemical; settings: o/n at 37° C.
Description: (§1) FIG. 11. Specificity of IdeSork2.0. IdeSork2.0 was mixed with different antibodies and incubated o/n at 37° C. before analysis on SDS-PAGE.
(§2) Various antibodies and antibody based therapeutics were incubated with Xork, IdeS, or IdeZ (1:40 ratio) for 1 hour at 37° C. in PBS, with substrate concentrations ranging between 2-5 mg/mL, before being analyzed on SDS-PAGE. For kinetic studies, a substrate level of 2-200 μM IVIG was used during 10 min at 37° C. before being analyzed on a UHPLC system.

IgG2 = assay: Comparison to other IgG proteases: IgG2; type: biochemical; settings: SDS-PAGE
Description: (§3) FIG. 10. IdeSork2.0 is having a similar activity compared to IdeS and IdeZ. To investigate if IdeSork2.0 is hydrolyzing IgG in a similar way as IdeS and IdeZ they were all incubated against IgG1 and IgG2 and analyzed on SDS-PAGE. The cleavage patterns look identical, with both IdeSork2.0 and IdeS having less activity towards IgG2.
(§4) To further look into the activity of IdeSORK2.0, its activity was compared with IdeS and IdeZ against both IgG1 and IgG2.

Trastuzumab = assay: Mechanism of action: time course on Trastuzumab, non-reduced SDS-PAGE; type: biochemical, human; settings: 1:20, 0-60 minutes
Description: FIG. 6. IdeSork2.0 is acting upon IgG in a two-step mechanism. To investigate if IdeSork2.0 is hydrolyzing both heavy chains of IgG simultaneously, or acting on them individually, we incubated Trastuzumab with IdeSork2.0 (1:20) and incubated for 0-60 minutes before analyzing on a non-reduced SDS-PAGE.
IdeS is known to first hydrolyze one chain of the antibody, and upon hydrolysis thereof, have lower affinity to the second chain. As such many antibodies may be only partly hydrolyzed at the start of the reaction. IdeSORK2.0 also generates fragments with single chain cleavage, however a large proportion of these are quickly processed to full cleavage (FIG. 6).

guinea pig IgG = assay: Immunoglobulin specificity on SDS-PAGE: guinea pig IgG; type: biochemical; settings: o/n at 37° C.
Description: as §1, §2

IgG1 = assay: Comparison to other IgG proteases: IgG1; type: biochemical; settings: SDS-PAGE
Description: as §3, §4

IgG in human serum = assay: Activity of IgG hydrolases in human serum; type: biochemical; settings: serum (100%), E:S 1:40, 0-4 hours at 37° C., non-reduced SDS-PAGE
Description: FIG. 15. Activity of IgG hydrolases in human serum. Serum (100%) was spiked with IgG hydrolases and activity was analyzed over time using non-reduced SDS-PAGE.
For serum activity assays, an E: S ratio of 1:40 (assuming 10 mg/mL IgG in serum) was used, incubating 0-4 hours at 37° C. before analysis on a non-reduced SDS-PAGE. All enzymes were supplied by Genovis AB.

B1: IdeSORK2.0: SEQ ID NO: 2 (N terminal 312 amino acids of IdeSORK) with added N terminal methionine and C-terminal His6; 319 amino acids (protein)
chain: MSKRKLLKKIEKKDTSSVLTQKKQTKTLWADGVQVDDKDFKPSTENFGTNYLAAEYGIGKGYYDINKKFDGTDDDLCSGVVAANQLHWWLDRNKDYIEKYRQQSKDNGVTIGNTDIFELNKLHDEDQSNFFDFIKKSFGNKFLQPERLLNMYINGYGYLTSQDKAKTSQPSPSKLNFFQKVFKNNLLTDKTPINDIDEFSSQTKNALQNHKVLAVSFASIKNRGLGHVVTVWGADFDENGKVVALYVTDSDDRSKNIGNAKLGMKKLRIEVSAQDSSTIKLTGFEDKNSGGSLRHLYSLSTGEQIWKKYFEETHHHHHH
modifications: (IdeSORK2.0) Protein of SEQ ID NO 2 engineered to include an additional N terminal methionine and a C-terminal protein purification tag - His6
**Q.** Which results are given for B1?
**A.** General protease activity (signal) (casein): no signs of general protease activity; General protease activity (signal) (casein; listed as IdeSork 2.0): did not give any measurable signal; Activity on horse IgG (horse IgG): showed activity; Hydrolysis of IgG2 (IgG2): able to hydrolyze; Hydrolysis of IgG2 (IgG2; listed as IdeSork2.0): less activity; Mechanism of IgG heavy chain hydrolysis (Trastuzumab): activity is mediated one chain at a time; Time course of IgG hydrolysis (Trastuzumab): Most IgG is hydrolyzed within the first few minutes; Mechanism of IgG heavy chain hydrolysis (Trastuzumab; listed as IdeSork2.0): two-step reaction; Activity on guinea pig IgG (guinea pig IgG): showed activity; Hydrolysis of IgG1 (IgG1): able to hydrolyze; Immunoglobulin cleavage activity in the presence of human serum (IgG in human serum): demonstrated immunoglobulin cleavage activity

— patent US20250320480A1, “Immunoglobulin Cleaving Enzyme” (priority 2021, published 2025)
